# Reference: patent US20050196808A1 (published 2005)
# Non-standard residues stand in square brackets, D forms with d. No end group written: not given here. pY = N[C@@H](Cc1ccc(OP(=O)(O)O)cc1)C(=O)O; pT = C[C@@H](OP(=O)(O)O)[C@H](N)C(=O)O
# T1: Cdc25C, mitotically phosphorylated (up-shifted) form, endogenous in nocodazole-arrested HeLa cells (human, UniProt P30307 1-473, limits assumed, extensively phosphorylated at the N-terminus in mitosis, including phosphothreonine at 130)
# T1 construct: also called mitotically up-shifted form of Cdc25C; mitotically phosphorylated Cdc25C
# T1 sequence (looked up): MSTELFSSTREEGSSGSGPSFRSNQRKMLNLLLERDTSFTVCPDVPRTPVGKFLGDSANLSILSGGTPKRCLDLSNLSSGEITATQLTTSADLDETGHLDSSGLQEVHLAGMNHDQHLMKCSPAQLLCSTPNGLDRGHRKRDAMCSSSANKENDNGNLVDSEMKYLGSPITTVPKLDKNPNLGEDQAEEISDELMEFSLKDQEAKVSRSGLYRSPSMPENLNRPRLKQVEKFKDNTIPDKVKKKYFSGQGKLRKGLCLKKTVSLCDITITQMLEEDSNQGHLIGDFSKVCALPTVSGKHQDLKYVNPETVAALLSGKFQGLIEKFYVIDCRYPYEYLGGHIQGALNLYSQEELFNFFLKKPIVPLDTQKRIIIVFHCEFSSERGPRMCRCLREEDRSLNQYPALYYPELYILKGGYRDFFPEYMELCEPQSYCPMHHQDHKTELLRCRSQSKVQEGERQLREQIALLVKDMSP
# B1: PoloBoxtide-7V (peptide)
# peptide: MAGPMQV[pT]PLNGAKK
# notes: also called phosphopeptide whose serine at pThr-1 was mutated to valine
# B2: His-Xpress-tagged control Plk1 PBD construct lacking the second Polo-box (residues 326-506) (other)
# chain: SIAPSSLDPSNRKPLTVLNKGLENPLPERPREKEEPVVRETGEVVDCHLSDMLQQLHSVNASKPSERGLVRQEEAEDPACIPIFWVSKWVDYSDKYGLGYQLCDNSVGVLFNDSTRLILYNDGDSLQYIERDGTESYLTVSSHPNSLMKKITLLKYFRNYMSEHLLKAGANITPREGDELA
# notes: not shown: His-Xpress tag
# Experiments:
# [1] = target: Plk-1 Polo-box Domain (PBD, residues 326-603) (human) (UniProt P53350); test: isothermal titration calorimetry [table]
# [2] = target: Plk-1 Polo-box Domain (PBD, residues 326-603) (human) (UniProt P53350); test: isothermal titration calorimetry
# [3] = target: BRCTtide-7pS, GAAYDI-pS-…; test: ITC, peptide injected into 15 µM GST-(BRCT)2
# [4] = target: BRCTtide-7pT, GAAYDI-pT-…; test: ITC, peptide injected into 15 µM GST-(BRCT)2
# [5] = target: PoloBoxtide with phosphoserine substituted for phosphothreonine; test: ITC
# [6] = target: PoloBoxtide with Asn substituted for Pro at pThr+1; test: ITC
# [7] = target: PoloBoxtide-optimal, MAGPMQ-S-pT-P-LNGAKK; test: isothermal titration calorimetry (ITC), peptide injected into 15 µM PBD
# [8] = target: T2, Plk-1 Polo-box Domain (PBD, residues 326-603) (human, UniProt P53350 326-603); test: isothermal titration calorimetry [table]
# T2 construct: also called Plk-1 PBD; Plk1 PBD
# Method: (§1) Some peptides contained an additional tyrosine residue to facilitate concentration determination by optical absorbance. Calorimetry measurements were performed using a VP-ITC microcalorimeter (MicroCal Inc., Studio City, Calif.). […] Thirty injections were performed with a spacing of 240 s and a reference power of 25 μCal/s. Binding isotherms were plotted and analyzed using Origin Software (MicroCal Inc. Studio City, Calif.).
# [9] = target: T2, Plk-1 Polo-box Domain (PBD, residues …); test: isothermal titration calorimetry [ITC panels]
# Method: as §1
# [10] = target: T1, Cdc25C, mitotically phosphorylated …; test: Ni2+ bead pull-down from nocodazole-arrested transfected HeLa cells, blot α-Cdc25
molecule,measurement,setting,value
"PoloBoxtide-optimal, MAGPMQ-S-pT-P-LNGAKK (peptide)",Kd,[1],280 nM
same,Kd,[2],280 nM
PoloBoxtide with Asn substituted for Pro at pThr+1 (peptide),Kd,[1],1500 nM
GST-PTIP tandem BRCT domains (residues 550-757) (from UniProt Q6ZW49 862-1069),Kd,[3],280 nM
same,Kd,[4],14300 nM
GST-BRCA1 tandem BRCT domains (residues 1634-1863) (from UniProt P38398 1634-1863),Kd,[3],400 nM
PoloBoxtide with phosphoserine substituted for phosphothreonine (peptide),Kd,[1],2100 nM
"Plk-1 Polo-box Domain (PBD, residues 326-603) (from UniProt P53350 326-603)",fold drop in affinity against PoloBoxtide-optimal,[5],7 fold
same,fold increase in Kd against PoloBoxtide-optimal,[6],> 5 fold
same,Kd,[7],280 nM
MAGPMQA[pT]PLNGAKK [PoloBoxtide with Ser at pThr-1 replaced with Ala],binding result,[8],no binding (tested: 150 µM Plk-1 PBD)
MAGPMQC[pT]PLNGAKK [PoloBoxtide with Ser at pThr-1 replaced with Cys],binding result,[8],no binding (tested: 150 µM Plk-1 PBD)
MAGPMQG[pT]PLNGAKK [PoloBoxtide with Ser at pThr-1 replaced with Gly],binding result,[8],no binding (tested: 150 µM Plk-1 PBD)
MAGPMQT[pT]PLNGAKK [PoloBoxtide with Ser at pThr-1 replaced with Thr],binding result,[8],no binding (tested: 150 µM Plk-1 PBD)
MAGPMQS[pY]PLNGAKK (built from the optimal peptide) [PoloBoxtide with phosphotyrosine substituted for phosphothreonine],binding result,[8],no binding (tested: 150 µM Plk-1 PBD)
B1,binding result,[9],no binding (tested: molar ratio about 2.7)
B2,binding result,[10],no binding
